Laboratory results reported in publication PMC8571288.

What was measured:
RAD51 [1] = target: T1, RAD51 (Homo sapiens, UniProt Q06609 1-339); assay: pull-down; RPA-coated DNA plus CST; smFRET: 25 mM Tris-HCl pH 7.5, 0.5 mM EDTA, 10% glycerol, 50 or 150 mM KCl (temperature not stated); pull-down: 35 mM Tris-HCl pH 7.5, 10% glycerol, 0.01% Igepal, 1 mM 2-ME, 1 mM ATP, 2.5 mM MgCl2, 50 or 150 mM KCl, 37 C; EMSA: 35 mM Tris-HCl pH 7.5, 1 mM DTT, 2.5 mM MgCl2, 100 ng/uL BSA, 50 mM KCl, 37 C; settings: protein: recombinant; chain copies: 10; label: 5' biotin, on streptavidin beads
T1 sequence (Q06609 whole entry): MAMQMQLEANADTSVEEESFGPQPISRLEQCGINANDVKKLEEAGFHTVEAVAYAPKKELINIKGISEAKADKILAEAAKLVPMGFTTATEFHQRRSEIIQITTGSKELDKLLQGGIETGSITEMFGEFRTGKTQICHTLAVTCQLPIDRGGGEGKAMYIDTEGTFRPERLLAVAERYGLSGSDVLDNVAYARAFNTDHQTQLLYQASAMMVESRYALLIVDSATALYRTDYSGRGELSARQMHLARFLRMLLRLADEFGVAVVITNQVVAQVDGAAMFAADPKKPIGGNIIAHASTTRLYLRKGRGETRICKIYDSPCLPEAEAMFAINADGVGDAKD

[2] = target: CST complex (CTC1-STN1-TEN1) (Homo sapiens, UniProt Q2NKJ3;Q9H668;Q86WV5 1-1217;1-368;1-123); assay: pull-down; RPA-coated DNA, 50 mM KCl; smFRET: 25 mM Tris-HCl pH 7.5, 0.5 mM EDTA, 10% glycerol, 50 or 150 mM KCl (temperature not stated); pull-down: 35 mM Tris-HCl pH 7.5, 10% glycerol, 0.01% Igepal, 1 mM 2-ME, 1 mM ATP, 2.5 mM MgCl2, 50 or 150 mM KCl, 37 C; EMSA: 35 mM Tris-HCl pH 7.5, 1 mM DTT, 2.5 mM MgCl2, 100 ng/uL BSA, 50 mM KCl, 37 C; settings: protein: recombinant; tags: FLAG-CTC1, TEN1-His6; copies: 1;1;1; label: 5' biotin, on streptavidin beads
Sequence of CST complex (CTC1-STN1-TEN1) (Q2NKJ3 whole entry, chain 1 of 3): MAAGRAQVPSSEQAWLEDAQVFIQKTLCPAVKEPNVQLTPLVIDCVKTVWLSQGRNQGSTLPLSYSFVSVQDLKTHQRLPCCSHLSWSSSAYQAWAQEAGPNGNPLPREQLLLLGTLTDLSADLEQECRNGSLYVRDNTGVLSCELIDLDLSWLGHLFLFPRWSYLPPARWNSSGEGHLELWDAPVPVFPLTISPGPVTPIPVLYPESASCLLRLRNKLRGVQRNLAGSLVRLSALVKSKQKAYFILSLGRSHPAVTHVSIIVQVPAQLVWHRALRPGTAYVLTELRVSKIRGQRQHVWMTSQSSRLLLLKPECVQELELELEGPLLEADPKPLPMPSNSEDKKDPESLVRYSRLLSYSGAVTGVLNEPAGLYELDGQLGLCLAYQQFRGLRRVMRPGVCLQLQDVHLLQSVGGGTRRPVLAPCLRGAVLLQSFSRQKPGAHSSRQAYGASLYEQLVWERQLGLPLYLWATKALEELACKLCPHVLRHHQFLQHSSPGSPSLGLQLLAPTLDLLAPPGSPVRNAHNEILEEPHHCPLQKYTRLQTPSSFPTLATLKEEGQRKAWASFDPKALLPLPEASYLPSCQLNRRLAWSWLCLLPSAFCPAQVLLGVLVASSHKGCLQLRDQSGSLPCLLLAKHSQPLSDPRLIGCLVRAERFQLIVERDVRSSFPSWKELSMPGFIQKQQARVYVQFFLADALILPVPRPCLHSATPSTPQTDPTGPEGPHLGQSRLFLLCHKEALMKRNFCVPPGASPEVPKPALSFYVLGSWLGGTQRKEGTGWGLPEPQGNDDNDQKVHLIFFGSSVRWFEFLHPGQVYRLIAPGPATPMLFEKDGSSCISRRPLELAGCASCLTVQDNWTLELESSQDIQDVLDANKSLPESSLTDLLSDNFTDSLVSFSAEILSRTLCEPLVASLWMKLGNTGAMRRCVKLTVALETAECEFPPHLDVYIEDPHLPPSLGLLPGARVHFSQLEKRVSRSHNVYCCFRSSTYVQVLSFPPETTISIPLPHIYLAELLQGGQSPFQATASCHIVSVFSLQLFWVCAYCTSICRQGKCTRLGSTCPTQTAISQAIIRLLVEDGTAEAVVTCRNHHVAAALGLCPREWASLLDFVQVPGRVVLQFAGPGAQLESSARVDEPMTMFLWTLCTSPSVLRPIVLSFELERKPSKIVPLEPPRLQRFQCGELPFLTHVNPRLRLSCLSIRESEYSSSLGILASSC
Sequence of CST complex (CTC1-STN1-TEN1) (Q9H668 whole entry, chain 2 of 3): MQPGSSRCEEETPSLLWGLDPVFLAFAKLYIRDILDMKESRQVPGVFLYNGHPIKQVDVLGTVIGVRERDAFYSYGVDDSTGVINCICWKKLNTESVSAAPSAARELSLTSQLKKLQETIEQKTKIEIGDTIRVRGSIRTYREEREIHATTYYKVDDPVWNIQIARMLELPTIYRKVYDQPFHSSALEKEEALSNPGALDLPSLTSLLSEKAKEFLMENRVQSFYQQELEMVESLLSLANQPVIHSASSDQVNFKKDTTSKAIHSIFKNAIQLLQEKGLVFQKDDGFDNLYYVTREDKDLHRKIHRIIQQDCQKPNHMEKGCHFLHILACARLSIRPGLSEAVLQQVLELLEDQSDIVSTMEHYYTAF
Sequence of CST complex (CTC1-STN1-TEN1) (Q86WV5 whole entry, chain 3 of 3): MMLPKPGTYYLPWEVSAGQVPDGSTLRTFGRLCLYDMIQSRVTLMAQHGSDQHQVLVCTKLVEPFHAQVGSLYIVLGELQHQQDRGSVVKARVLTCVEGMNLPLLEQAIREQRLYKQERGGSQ

RPA complex = RPA complex (Homo sapiens, UniProt P27694;P15927;P35244 1-616;1-270;1-121); assay: pull-down; 50 mM KCl; unchanged by CST; smFRET: 25 mM Tris-HCl pH 7.5, 0.5 mM EDTA, 10% glycerol, 50 or 150 mM KCl (temperature not stated); pull-down: 35 mM Tris-HCl pH 7.5, 10% glycerol, 0.01% Igepal, 1 mM 2-ME, 1 mM ATP, 2.5 mM MgCl2, 50 or 150 mM KCl, 37 C; EMSA: 35 mM Tris-HCl pH 7.5, 1 mM DTT, 2.5 mM MgCl2, 100 ng/uL BSA, 50 mM KCl, 37 C; settings: protein: recombinant; copies: 1;1;1; label: 5' biotin, on streptavidin beads
Sequence of RPA complex (P27694 whole entry, chain 1 of 3): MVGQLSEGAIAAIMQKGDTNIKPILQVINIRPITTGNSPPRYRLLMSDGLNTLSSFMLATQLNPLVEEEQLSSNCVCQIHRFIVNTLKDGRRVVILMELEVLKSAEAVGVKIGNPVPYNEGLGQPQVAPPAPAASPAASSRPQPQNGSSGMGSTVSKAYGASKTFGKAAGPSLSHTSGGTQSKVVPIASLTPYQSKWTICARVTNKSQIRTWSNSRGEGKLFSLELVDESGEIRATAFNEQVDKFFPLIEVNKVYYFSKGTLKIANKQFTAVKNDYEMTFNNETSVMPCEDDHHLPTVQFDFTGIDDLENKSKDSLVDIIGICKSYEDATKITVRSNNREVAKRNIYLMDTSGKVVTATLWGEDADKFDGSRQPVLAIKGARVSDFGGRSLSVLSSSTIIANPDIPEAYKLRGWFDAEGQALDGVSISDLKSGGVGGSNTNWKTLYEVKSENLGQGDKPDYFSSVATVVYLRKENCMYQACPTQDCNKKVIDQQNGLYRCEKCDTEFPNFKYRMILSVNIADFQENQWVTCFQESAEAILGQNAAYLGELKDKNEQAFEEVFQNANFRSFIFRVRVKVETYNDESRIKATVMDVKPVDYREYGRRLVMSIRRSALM
Sequence of RPA complex (P15927 whole entry, chain 2 of 3): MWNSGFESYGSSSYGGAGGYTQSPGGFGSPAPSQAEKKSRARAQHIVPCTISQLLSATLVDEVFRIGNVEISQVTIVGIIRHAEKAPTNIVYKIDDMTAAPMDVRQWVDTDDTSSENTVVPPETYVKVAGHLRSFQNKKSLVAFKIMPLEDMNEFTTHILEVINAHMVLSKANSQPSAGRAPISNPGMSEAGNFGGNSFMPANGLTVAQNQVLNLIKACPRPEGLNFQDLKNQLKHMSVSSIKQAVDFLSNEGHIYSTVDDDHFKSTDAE
Sequence of RPA complex (P35244 whole entry, chain 3 of 3): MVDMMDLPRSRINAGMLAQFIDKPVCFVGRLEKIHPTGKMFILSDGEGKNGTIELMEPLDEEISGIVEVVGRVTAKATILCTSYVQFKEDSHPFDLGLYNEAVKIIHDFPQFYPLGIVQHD

RAD51 [3] = target: T1, RAD51; assay: negative-stain EM; 150 mM KCl; naked DNA, median filament 96.41 nm; smFRET: 25 mM Tris-HCl pH 7.5, 0.5 mM EDTA, 10% glycerol, 50 or 150 mM KCl (temperature not stated); pull-down: 35 mM Tris-HCl pH 7.5, 10% glycerol, 0.01% Igepal, 1 mM 2-ME, 1 mM ATP, 2.5 mM MgCl2, 50 or 150 mM KCl, 37 C; EMSA: 35 mM Tris-HCl pH 7.5, 1 mM DTT, 2.5 mM MgCl2, 100 ng/uL BSA, 50 mM KCl, 37 C; settings: protein: recombinant; chain copies: 10
SNAP649-CST = SNAP649-CST (Homo sapiens, UniProt Q2NKJ3;Q9H668;Q86WV5 1-1217;1-368;1-123); assay: CoSMoS; EGFP-RPA-coated DNA, 50 mM KCl, 13.5 nM; smFRET: 25 mM Tris-HCl pH 7.5, 0.5 mM EDTA, 10% glycerol, 50 or 150 mM KCl (temperature not stated); pull-down: 35 mM Tris-HCl pH 7.5, 10% glycerol, 0.01% Igepal, 1 mM 2-ME, 1 mM ATP, 2.5 mM MgCl2, 50 or 150 mM KCl, 37 C; EMSA: 35 mM Tris-HCl pH 7.5, 1 mM DTT, 2.5 mM MgCl2, 100 ng/uL BSA, 50 mM KCl, 37 C; settings: protein: recombinant; tags: SNAP (SNAP-Surface 649 label); copies: 1;1;1; label: 5' Cy3 and 3' biotin on Oligo 10; 3' overhang 80 nt
Sequence of SNAP649-CST (Q2NKJ3 whole entry, chain 1 of 3): as the sequence (Q2NKJ3 whole entry, chain 1 of 3) above
Sequence of SNAP649-CST (Q9H668 whole entry, chain 2 of 3): as the sequence (Q9H668 whole entry, chain 2 of 3) above
Sequence of SNAP649-CST (Q86WV5 whole entry, chain 3 of 3): as the sequence (Q86WV5 whole entry, chain 3 of 3) above

EGFP-RPA = EGFP-RPA (Homo sapiens, UniProt P27694;P15927;P35244 1-616;1-270;1-121); assay: CoSMoS; 50 mM KCl, 10 nM; ~85% of DNA foci RPA-bound; 1-4 RPA per DNA; smFRET: 25 mM Tris-HCl pH 7.5, 0.5 mM EDTA, 10% glycerol, 50 or 150 mM KCl (temperature not stated); pull-down: 35 mM Tris-HCl pH 7.5, 10% glycerol, 0.01% Igepal, 1 mM 2-ME, 1 mM ATP, 2.5 mM MgCl2, 50 or 150 mM KCl, 37 C; EMSA: 35 mM Tris-HCl pH 7.5, 1 mM DTT, 2.5 mM MgCl2, 100 ng/uL BSA, 50 mM KCl, 37 C; settings: protein: recombinant; tags: EGFP; copies: 1;1;1; label: 5' Cy3 and 3' biotin on Oligo 10; 3' overhang 80 nt
Sequence of EGFP-RPA (P27694 whole entry, chain 1 of 3): as the sequence (P27694 whole entry, chain 1 of 3) above
Sequence of EGFP-RPA (P15927 whole entry, chain 2 of 3): as the sequence (P15927 whole entry, chain 2 of 3) above
Sequence of EGFP-RPA (P35244 whole entry, chain 3 of 3): as the sequence (P35244 whole entry, chain 3 of 3) above

B1: 80-nt ssDNA, biotinylated Oligo 1 (ssDNA)
DNA: TTATGTTCATTTTTTATATCCTTTACTTTATTTTCTCTGTTTATTCATTTACTTATTTTGTATTATCCTTATCTTATTTA
binding result (RAD51 [1]): binds
binding result [2]: binds
binding result (RPA complex): binds

B2: 80-nt ssDNA Oligo 1 (ssDNA)
DNA: B1 DNA
binding result (RAD51 [3]): binds

B3: 80-nt ssDNA overhang (Oligo 9+10) (mixed)
DNA 1: TGGCGACGGCAGCGAGGCTTATGTTCATTTTTTATATCCTTTACTTTATTTTCTCTGTTTATTCATTTACTTATTTTGTATTATCCTTATCTTATTTA
DNA 2: GCCTCGCTGCCGTCGCCA
binding result (SNAP649-CST): binds
binding result (EGFP-RPA): binds
